Laboratory results published in publication PMC10177266, “Interaction between Human Papillomavirus-Encoded E6 Protein and AurB Induces Cell Immortalization and Proliferation—A Potential Target of Intervention” (Cancers, 2023).

Columns and labels:
Test in all cases: pull-down; purified GST fusion proteins on glutathione agarose incubated with in vitro-translated Flag-AurB for 1 h at room temperature; washed thrice with PBS with 0.1% Tween 20; bound AurB detected by western blot, quantitated with ImageJ and normalized to the GST fusion protein
[1] = biological target: GST-HPV16 E6 with its C-terminus PDZ binding motif depleted (E6ΔPBM) (human papillomavirus type 16) (UniProt P03126)
GST-HPV16 E6 T140A = biological target: T1, GST-HPV16 E6 T140A (human papillomavirus type 16, UniProt P03126 1-158, T140A); settings: one partner purified
T1 construct: E6 oncoprotein of human papillomavirus type 16 with T140A; source: E. coli, purified on glutathione-conjugated agarose resin

GST-HPV16 E6 S150A = biological target: T2, GST-HPV16 E6 S150A (human papillomavirus type 16, UniProt P03126 1-158, S150A); settings: one partner purified
T2 construct: E6 oncoprotein of human papillomavirus type 16 with S150A; source: E. coli, purified on glutathione-conjugated agarose resin

GST-HPV16 E6 S89A = biological target: T3, GST-HPV16 E6 S89A (human papillomavirus type 16, UniProt P03126 1-158, S89A); settings: one partner purified
T3 construct: E6 oncoprotein of human papillomavirus type 16 with S89A; source: E. coli, purified on glutathione-conjugated agarose resin

GST-HPV16 E6 S145A = biological target: T4, GST-HPV16 E6 S145A (human papillomavirus type 16, UniProt P03126 1-158, S145A); settings: one partner purified
T4 construct: E6 oncoprotein of human papillomavirus type 16 with S145A; source: E. coli, purified on glutathione-conjugated agarose resin

Molecule | fold of bound AurB against E6 wild type [1] [fold] | bound AurB, percent of E6 wild type (GST-HPV16 E6 T140A) [%] | bound AurB, percent of E6 wild type (GST-HPV16 E6 S150A) [%] | bound AurB, percent of E6 wild type (GST-HPV16 E6 S89A) [%] | bound AurB, percent of E6 wild type (GST-HPV16 E6 S145A) [%]
Flag-tagged Aurora kinase B (from UniProt Q96GD4 1-344) (enzyme) | 3 | – | – | – | –
Flag-tagged Aurora kinase B (enzyme, Aurora kinase B, human, from pcDNA:Flag-Aurora kinase B; the functional rows use this molecule for that purified protein; also called FL-AurB; Flag-AurB; source: in vitro translated (TNT Coupled Reticulocyte Lysate System, Promega)) MAQKENSYPWPYGRQTAPSGLSTLPQRVLRKEPVTPSALVLMSRSNVQPTAAPGQKVMENSSGTPDILTRHFTIDDFEIGRPLGKGKFGNVYLAREKKSHFIVALKVLFKSQIEKEGVEHQLRREIEIQAHLHHPNILRLYNYFYDRRRIYLILEYAPRGELYKELQKSCTFDEQRTATIMEELADALMYCHGKKVIHRDIKPENLLLGLKGELKIADFGWSVHAPSLRRKTMCGTLDYLPPEMIEGRMHNEKVDLWCIGVLCYELLVGNPPFESASHNETYRRIVKVDLKFPASVPMGAQDLISKLLRHNPSERLPLAQVSAHPWVRANSRRVLPPSALQSVA | – | 45 | 57 | 44 | 27
